Assays:
Assay in all cases: -; previously described evasin
CCL3L1_HUMAN = target: CCL3L1_HUMAN
CXCL1_HUMAN = target: CXCL1_HUMAN
CCL23_HUMAN = target: CCL23_HUMAN
CCL26_HUMAN = target: CCL26_HUMAN
CCL24_HUMAN = target: CCL24_HUMAN
CCL7_HUMAN = target: CCL7_HUMAN
CCL16_HUMAN = target: CCL16_HUMAN
CCL21_HUMAN = target: CCL21_HUMAN
CCL14_HUMAN = target: CCL14_HUMAN

EVASIN1
Kd (CCL3L1_HUMAN): 0.05 nM

EVASIN3
Kd (CXCL1_HUMAN): 0.85 nM

EVASIN4
Kd (CCL23_HUMAN): 4.43 nM | Kd (CCL26_HUMAN): 0.88 nM | Kd (CCL24_HUMAN): 0.41 nM | Kd (CCL7_HUMAN): 0.7 nM | Kd (CCL16_HUMAN): 0.26 nM | Kd (CCL21_HUMAN): 0.01 nM | Kd (CCL14_HUMAN): 0.14 nM

Source: patent US20220175942A1
